Measured values as given in article PMC9122904, “Insights into the client protein release mechanism of the ATP-independent chaperone Spy” (Nature Communications, 2022).

What was measured:
Assay in all cases: BLI; Octet RED96; client biotinylated and loaded on streptavidin sensors; Spy or Spy variant in solution at 0.25, 0.5, 1, 1.5 and 2 μM; 40 mM HEPES, 150 mM NaCl, pH 7.5; Kd calculated as koff/kon
Conditions in all cases: both partners purified
[1] = molecular target: T1, Spy wild type (Spy_(1-138)) (UniProt P77754 24-161)
T1 construct: Spy, ATP-independent periplasmic chaperone; also called WT; wt; source: E. coli BL21 (DE3), purified (Ni-NTA, cation exchange, SEC); not shown: His6, N-terminal, cleaved; SUMO, N-terminal, cleaved
T1 sequence (looked up): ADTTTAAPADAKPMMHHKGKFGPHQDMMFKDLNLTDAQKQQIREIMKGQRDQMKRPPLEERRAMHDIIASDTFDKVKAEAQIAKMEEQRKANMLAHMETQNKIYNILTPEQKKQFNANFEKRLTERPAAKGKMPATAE
In short: (§1)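 Client proteins were biotinylated with EZ-link NHS-biotin at a 1:1 molar ratio, loaded onto streptavidin sensors, and measured by biolayer interferometry on an Octet RED96. The loaded sensors were dipped into 40 mM HEPES, 150 mM NaCl, pH 7.5 holding the analyte protein at 0.25, 0.5, 1, 1.5 or 2 μM, then moved to buffer without it. Fitting the wavelength-shift association and dissociation curves in SigmaPlot 12.0 gave the observed association rate and koff, kon was taken from the observed rate plotted against analyte concentration, and Kd was calculated as koff/kon.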

Spy_(27-127) = molecular target: T2, Spy_(27-127) (UniProt P77754 50-150)
T2 construct: Spy chaperone, residues 27-127; source: E. coli BL21 (DE3), purified (Ni-NTA, cation exchange, SEC); not shown: His6, N-terminal, cleaved; SUMO, N-terminal, cleaved
T2 sequence (looked up): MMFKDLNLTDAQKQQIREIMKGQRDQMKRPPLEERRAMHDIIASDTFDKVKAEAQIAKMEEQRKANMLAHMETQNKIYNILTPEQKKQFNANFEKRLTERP
In short: as §1

Spy_(29-138) = molecular target: T3, Spy_(29-138) (UniProt P77754 52-161)
T3 construct: source: E. coli BL21 (DE3), purified (Ni-NTA, cation exchange, SEC); not shown: His6, N-terminal, cleaved; SUMO, N-terminal, cleaved
T3 sequence (looked up): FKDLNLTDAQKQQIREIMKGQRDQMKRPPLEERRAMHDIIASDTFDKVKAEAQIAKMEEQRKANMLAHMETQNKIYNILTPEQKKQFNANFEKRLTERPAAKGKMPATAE
In short: as §1

Spy_(29-130) = molecular target: T4, Spy_(29-130) (UniProt P77754 52-153)
T4 construct: Spy chaperone, residues 29-130; source: E. coli BL21 (DE3), purified (Ni-NTA, cation exchange, SEC); not shown: His6, N-terminal, cleaved; SUMO, N-terminal, cleaved
T4 sequence (looked up): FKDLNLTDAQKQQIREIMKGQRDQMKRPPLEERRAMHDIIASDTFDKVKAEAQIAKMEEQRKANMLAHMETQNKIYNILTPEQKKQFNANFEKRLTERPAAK
In short: as §1

Spy_(29-124) = molecular target: T5, Spy_(29-124) (UniProt P77754 52-147)
T5 construct: also called termini-free Spy; source: E. coli BL21 (DE3), purified (Ni-NTA, cation exchange, SEC); not shown: His6, N-terminal, cleaved; SUMO, N-terminal, cleaved
T5 sequence (looked up): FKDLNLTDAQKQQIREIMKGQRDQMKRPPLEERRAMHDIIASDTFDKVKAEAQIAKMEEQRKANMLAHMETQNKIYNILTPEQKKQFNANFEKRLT
In short: as §1

Spy_(1-124) = molecular target: T6, Spy_(1-124) (UniProt P77754 24-147)
T6 construct: source: E. coli BL21 (DE3), purified (Ni-NTA, cation exchange, SEC); not shown: His6, N-terminal, cleaved; SUMO, N-terminal, cleaved
T6 sequence (looked up): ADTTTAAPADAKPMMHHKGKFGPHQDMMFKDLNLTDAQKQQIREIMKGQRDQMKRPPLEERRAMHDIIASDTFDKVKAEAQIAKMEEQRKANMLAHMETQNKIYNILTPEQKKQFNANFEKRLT
In short: as §1

Spy_(24-130) = molecular target: T7, Spy_(24-130) (UniProt P77754 47-153)
T7 construct: Spy chaperone, residues 24-130; source: E. coli BL21 (DE3), purified (Ni-NTA, cation exchange, SEC); not shown: His6, N-terminal, cleaved; SUMO, N-terminal, cleaved
T7 sequence (looked up): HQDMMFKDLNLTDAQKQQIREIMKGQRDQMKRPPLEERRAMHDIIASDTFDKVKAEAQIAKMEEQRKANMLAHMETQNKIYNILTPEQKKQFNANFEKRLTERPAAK
In short: as §1

Spy_(24-124) = molecular target: T8, Spy_(24-124) (UniProt P77754 47-147)
T8 construct: source: E. coli BL21 (DE3), purified (Ni-NTA, cation exchange, SEC); not shown: His6, N-terminal, cleaved; SUMO, N-terminal, cleaved
T8 sequence (looked up): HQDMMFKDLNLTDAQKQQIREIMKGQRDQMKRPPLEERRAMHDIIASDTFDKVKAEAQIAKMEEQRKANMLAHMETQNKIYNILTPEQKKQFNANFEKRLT
In short: as §1

koff [1]: 0.179 s⁻¹
koff (Spy_(27-127)): 0.0933 s⁻¹
koff (Spy_(29-138)): 0.0893 s⁻¹
koff (Spy_(29-130)): 0.0937 s⁻¹
koff (Spy_(29-124)): 0.089 s⁻¹
koff (Spy_(1-124)): 0.188 s⁻¹
koff (Spy_(24-130)): 0.3 s⁻¹
koff (Spy_(24-124)): 0.423 s⁻¹
B1: Im7 H40W L53A I54A (natural protein)
chain: MELKNSISDYTEAEFVQLLKEIEKENVAATDDVLDVLLEWFVKITEHPDGTDAAYYPSDNRDDSPEGIVKEIKEWRAANGKPGFKQG
modifications: biotin (EZ-link NHS-biotin, 1:1 molar ratio of biotin to protein)
notes: Im7 (colicin E7 immunity protein) with H40W L53A I54A; Spy was made with an N-terminal His6-SUMO tag that was cleaved; also called Im7AAW; partially folded client; source: purified by a similar procedure to Spy
